Assay results taken from the supplement of paper PMC9732359.
± gives the uncertainty stated by the source.

Experiment: protein stability index of a GFP-peptide fusion (yeast GPS) (PSI 1-4); higher = more stable; sorted into four equal gates, so the index is relative within each strain
How it was run: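 For each peptide, the protein stability index sums the read frequency in every gate after multiplying it by the gate number. Read frequencies came from plasmids that were PCR-amplified from each gate and Illumina-sequenced, with reads assigned to strains by barcodes. The gates were four equal bins of GFP/Cherry fluorescence ratio applied to mid-log yeast in leucine-free medium carrying a pooled library of tiled 17-residue yeast protein peptides fused downstream of GFP on a Cherry-expressing plasmid.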

| Sequence | protein stability index (doa10∆) | protein stability index (pdr5∆) | protein stability index (san1∆) | protein stability index (ubr1∆) |
| --- | --- | --- | --- | --- |
| VILGADSRTTTGAYIAN [PRE3] | 2.72 ± 0.13 | 3.41 ± 0.11 | 3.12 ± 0.16 | 2.81 ± 0.13 |
| SMNATMRNFSKQNQDSK [YDL088C/ASM4] | 2.86 ± 0.14 | 2.99 ± 0.24 | 1.94 ± 0.27 | 2.84 ± 0.24 |
| EIVWTSSLIKAGLDKGI [RPO31] | 1.92 ± 0.047 | 1.96 ± 0.061 | 2.54 ± 0.05 | 1.57 ± 0.057 |
| KLLFDHDELDMNECIAD [ESC2] |  |  | 1.03 ± 0.22 |  |
| LPTVGFDFIKDNETPSK [YOR098C/NUP1] | 3.15 ± 0.093 | 3.2 ± 0.056 | 3.08 ± 0.068 | 3.27 ± 0.053 |
| FGDTKSESKQLGNTSSV [SWI3] | 3.54 ± 0.12 | 3.16 ± 0.081 | 3.13 ± 0.066 | 3.35 ± 0.05 |
| ISLSVHTLALEFVNGGK [RRP46] | 2.49 ± 0.1 | 2.79 ± 0.068 | 2.06 ± 0.08 | 2.66 ± 0.079 |
| LGRDYPIEVDEELLQLF [IRR1] | 2.19 ± 0.24 | 1.99 ± 0.24 |  | 1.81 ± 0.24 |
| RMAKYLNNTHVISSGPL [RPC53] | 2.96 ± 0.13 | 2.91 ± 0.16 | 2.74 ± 0.074 | 2.47 ± 0.069 |
| NAANVPVENIWADIFAK [RPP1A] | 2.2 ± 0.083 | 2.51 ± 0.11 | 2.48 ± 0.1 | 2.34 ± 0.081 |
| FKELCYENKDNLTAGII [PRE3] | 2.95 ± 0.044 | 2.95 ± 0.042 | 2.93 ± 0.034 | 2.83 ± 0.039 |
| SAVIIDEFKDITKEVTQ [YIL149C/MLP2] | 2.76 ± 0.088 | 2.89 ± 0.059 | 2.39 ± 0.06 | 2.8 ± 0.068 |
| SRIRVKIEGCISQVSSI [RPB7] | 1.6 ± 0.1 | 1.75 ± 0.083 | 1.64 ± 0.11 | 1.76 ± 0.074 |
| EETPSKTNKISILKRHS [NUT1] |  |  |  | 3.1 ± 0.17 |
| YEYAEHDLLQIIHFHSH [SSN3] | 2.31 ± 0.062 | 2.59 ± 0.054 | 2.5 ± 0.045 | 2.63 ± 0.04 |
| ENLPGLSISVAAEPMDS [SNU114] | 2.7 ± 0.062 | 2.91 ± 0.079 | 2.83 ± 0.074 | 3.17 ± 0.095 |
| YFLDVKCPGCLNITTVF [RPS27A] | 2.64 ± 0.054 | 2.6 ± 0.055 | 2.19 ± 0.1 | 2.85 ± 0.054 |
| VTTCVYLACKVEECPQY [SSN8] | 1.93 ± 0.059 | 2.05 ± 0.075 | 2.58 ± 0.11 | 1.96 ± 0.073 |
| VDLWSVGCIFAELIGLQ [SSN3] | 3.18 ± 0.097 | 3.16 ± 0.13 | 3.35 ± 0.036 | 3.17 ± 0.12 |
| LVLADAFDIELSEFGIK [YCS4] | 2.92 ± 0.052 | 3.06 ± 0.057 | 2.9 ± 0.068 | 2.89 ± 0.046 |
| RLKDVEWVKLHRLLQRA [RMP1] | 3.16 ± 0.085 | 3.13 ± 0.093 | 3.24 ± 0.06 | 3.02 ± 0.079 |
| QPMISPDNSIFGDTKSE [SWI3] | 3.14 ± 0.059 | 3.38 ± 0.087 | 2.94 ± 0.098 | 3.1 ± 0.061 |
| IAQSKKKNNKIKESSKK [SRP21] | 3.09 ± 0.1 | 2.96 ± 0.087 | 3.01 ± 0.072 | 3.16 ± 0.063 |
| KNGVIPEESKGSFKYIT [SWP82] | 3.03 ± 0.05 | 3.09 ± 0.067 | 2.96 ± 0.047 | 3.18 ± 0.052 |
| LGKWYSKEDYETLKRDR [ARP7] | 3.31 ± 0.15 | 2.75 ± 0.2 | 3.33 ± 0.16 | 2.95 ± 0.15 |
| TELKKKLDDLENTKDNL [SMC1] | 3.01 ± 0.11 | 2.94 ± 0.12 | 3.09 ± 0.12 | 2.72 ± 0.14 |

| Sequence | protein stability index (doa10∆) | protein stability index (pdr5∆) | protein stability index (san1∆) | protein stability index (ubr1∆) |
| --- | --- | --- | --- | --- |
| SDSLGPDTSNEICDLAY [SRB2] | 2.95 ± 0.065 | 3.17 ± 0.064 | 3.29 ± 0.065 | 3.31 ± 0.049 |
| EILVLYNVCDTSKSLVK [SIN4] | 2.3 ± 0.05 | 2.88 ± 0.046 | 2.56 ± 0.058 | 2.97 ± 0.057 |
| GVLKPDITFFGEALPNK [SIR2] | 3.34 ± 0.08 | 3.19 ± 0.083 | 3.16 ± 0.091 | 3.35 ± 0.085 |
| LTADARSMIEHARTAAV [PUP2] | 2.11 ± 0.13 | 2.87 ± 0.22 | 2.38 ± 0.16 | 2.71 ± 0.084 |
| MDHEEARRKHVSGKILG [RPS22A] | 2.83 ± 0.28 | 2.65 ± 0.24 | 2.87 ± 0.24 | 3.02 ± 0.12 |
| SNILLNSLTKYPDLKAF [MED1] | 1.98 ± 0.14 | 2.41 ± 0.085 | 2.24 ± 0.2 | 1.71 ± 0.094 |
| TGANFDDVERGVSRQIA [REC8] | 3.49 ± 0.11 | 3.63 ± 0.17 | 3.32 ± 0.24 | 3.58 ± 0.12 |
| DMENMADEQKRSTDVWY [ARP7] | 2.35 ± 0.05 | 2.31 ± 0.04 | 2.62 ± 0.053 | 2.55 ± 0.044 |
| RVARRNAARKAEASGEA [RPS9A] | 3.32 ± 0.13 | 3.44 ± 0.17 |  | 3 ± 0.098 |
| LIFIACNDEDKDLETLY [ECM29] | 3.11 ± 0.084 | 3.04 ± 0.067 | 2.3 ± 0.089 | 2.92 ± 0.035 |
| VHEWEVSKPSLLHETND [PRP8] | 3.25 ± 0.11 | 3.05 ± 0.14 |  | 3.23 ± 0.072 |
| YYDRKEELKNMFLYILK [RRI2] | 2.16 ± 0.22 | 1.95 ± 0.13 | 1.27 ± 0.11 | 1.52 ± 0.1 |
| TRSHEYGRKSFRNNKND [REC8] | 3.2 ± 0.11 | 3.16 ± 0.067 | 3.29 ± 0.051 | 3.3 ± 0.067 |
| YVISLSYTDAQDKSKKI [YMR129W/POM152] | 2.67 ± 0.12 | 2.95 ± 0.082 | 2.9 ± 0.072 | 2.68 ± 0.06 |
| NSIDSTSRIELELKNIG [ECM29] | 3.24 ± 0.087 | 3.15 ± 0.062 | 2.8 ± 0.05 | 2.72 ± 0.044 |
| TSASNTSMNGVHNTVAA [SNF5] | 2.66 ± 0.042 | 2.86 ± 0.04 | 2.9 ± 0.051 | 2.9 ± 0.047 |
| GKHNLTIWCVCDSYLDA [BRR2] | 2.04 ± 0.059 | 2.26 ± 0.083 | 2.73 ± 0.093 | 2.31 ± 0.045 |
| TGALINNLEPRQTTSNT [RPN11] | 3.12 ± 0.1 | 3.25 ± 0.15 | 2.62 ± 0.15 | 3.02 ± 0.076 |
| EFGADWYKVAKNVGNKS [SWI3] | 3.35 ± 0.1 | 3.34 ± 0.083 | 3.35 ± 0.048 | 3.3 ± 0.051 |
| PSLLLQKDQDGRIPLHW [NAS6] | 3.28 ± 0.28 | 3.38 ± 0.21 |  |  |
| MAPLSLNFKDDKKYKGL [REC8] | 2.66 ± 0.089 | 2.61 ± 0.14 | 2.47 ± 0.065 | 2.47 ± 0.075 |
| EEEQDTGESEESSSEDD [IRR1] | 3.23 ± 0.2 | 3.44 ± 0.23 | 3.35 ± 0.11 | 3.43 ± 0.06 |
| LNQLDGFETSKNIKIIM [RPT6] | 2.39 ± 0.25 | 2.62 ± 0.22 | 2.74 ± 0.14 | 2.7 ± 0.18 |
| NIQHLLYGKRFFPYYVH [PRE7] | 1.25 ± 0.031 | 1.45 ± 0.037 | 1.36 ± 0.091 | 1.3 ± 0.039 |
| SRNGDFPRTRFEAQIDS [RPN10] | 3.09 ± 0.12 | 3.28 ± 0.12 | 3.34 ± 0.077 | 3.23 ± 0.086 |
